According to PMC7642414, “R-spondins are BMP receptor antagonists in Xenopus early embryonic development” (Nature Communications, 2020):
Blank lines part the entries; values can stand above or below the binder they belong to.

Assays:
[1] = target: T1, recombinant human RSPO2 (human, UniProt Q6UXX9 22-243); assay: solid-phase in vitro binding assay (AP fusion read-out); ternary complex: recombinant RSPO protein on plate-coated ZNRF3 Fc chimera (4-6 h), read out through BMPR1A^ECD-AP; settings: both partners purified
T1 construct: R-spondin 2, human, recombinant protein; source: bought: Peprotech 120-43

[2] = target: T2, recombinant human RSPO3 (human, UniProt Q9BXY4 22-272); assay: as above; settings: both partners purified
T2 construct: R-spondin 3, human, recombinant protein; source: bought: Peprotech 120-44
T2 sequence (looked up): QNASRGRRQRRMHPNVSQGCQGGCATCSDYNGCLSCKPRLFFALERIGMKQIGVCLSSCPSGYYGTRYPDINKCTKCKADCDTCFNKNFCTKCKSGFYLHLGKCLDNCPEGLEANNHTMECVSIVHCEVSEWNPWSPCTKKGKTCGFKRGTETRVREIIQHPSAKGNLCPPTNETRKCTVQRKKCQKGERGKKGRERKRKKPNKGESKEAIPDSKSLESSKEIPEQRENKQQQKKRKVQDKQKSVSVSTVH

[3] = target: T1, recombinant human RSPO2; assay: solid-phase in vitro binding assay (AP fusion read-out); Scatchard plot; RSPO2 recombinant protein (Peprotech 120-43) and BMPR1A^ECD-AP; settings: one partner purified

T1 sequence (Q6UXX9 22-243): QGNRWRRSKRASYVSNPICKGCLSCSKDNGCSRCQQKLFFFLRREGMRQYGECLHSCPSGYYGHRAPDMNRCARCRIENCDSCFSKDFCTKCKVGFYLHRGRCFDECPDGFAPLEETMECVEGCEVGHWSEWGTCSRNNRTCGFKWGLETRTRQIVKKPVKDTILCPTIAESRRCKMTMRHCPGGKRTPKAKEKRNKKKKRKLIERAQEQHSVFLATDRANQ

binding result [1]: binds | binding result [2]: binds
B1: recombinant human ZNRF3 Fc Chimera protein (Fc fusion, UniProt Q9ULT6 56-219, looked up)
chain: KETAFVEVVLFESSPSGDYTTYTTGLTGRFSRAGATLSAEGEIVQMHPLGLCNNNDEEDLYEYGWVGVVKLEQPELDPKPCLTVLGKAKRAVQRGATAVIFDVSENPEAIDQLNQGSEDPLKRPVVYVKGADAIKLMNIVNKQKVARARIQHRPPRQPTEYFDM
notes: Zinc and ring finger 3 (ZNRF3), human, as Fc chimera; source: bought: R&D systems 7994-RF

Kd [3]: ~4.8 nM
B2: BMPR1A^ECD-AP (domain or fragment, human, UniProt P36894 24-152, looked up)
chain: QNLDSMLHGTGMKSDSDQKKSENGVTLAPEDTLPFLKCYCSGHCPDDAINNTCITNGHCFAIIEEDDQGETTLASGCMKYEGSDFQCKDSPKAQLRRTIECCRTNLCNQYLQPTLPPVVIGPFFDGSIR
notes: Extracellular domain of BMPR1A/ALK3; also called extracellular domain of BMPR1A; source: HEK293T, transiently transfected, conditioned medium
